The values below come from patent US20150132307A1 (Hoffmann-La Roche, published 2015).

Experiment [1] addresses T1, Human recombinant soluble TWEAK (Example 6) (human, UniProt O43508 99-249, limits assumed).
T1 sequence: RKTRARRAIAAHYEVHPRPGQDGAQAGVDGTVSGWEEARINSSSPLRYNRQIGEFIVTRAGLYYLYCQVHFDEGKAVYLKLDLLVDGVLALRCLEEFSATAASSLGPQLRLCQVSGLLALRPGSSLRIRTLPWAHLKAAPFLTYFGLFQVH
Description: cell-based or functional assay.

For experiment [2], the target named is T2, Biotinylated human soluble TWEAK (amino acids 99-249 of SEQ ID NO: 68) (human, UniProt O43508 99-249, biotinylated).
T2 construct: also called Human TWEAK
T2 sequence: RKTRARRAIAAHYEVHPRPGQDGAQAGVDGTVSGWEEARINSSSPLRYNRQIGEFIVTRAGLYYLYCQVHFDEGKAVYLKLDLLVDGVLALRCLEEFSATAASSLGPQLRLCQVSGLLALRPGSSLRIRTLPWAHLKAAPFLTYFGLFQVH
Kind of experiment: SPR (Biacore 2000), biotinylated soluble TWEAK on streptavidin chip, antibody 100 nM as analyte, 25 C. How it is done: A Biacore 2000 instrument was used with a Biacore streptavidin coated sensor mounted into the system. The system buffer HBS-ET (10 mM HEPES pH 7.4, 150 mM NaCl, 1 mM EDTA, 0.05% Tween® 20) was used at a flow rate of 100 μl/min. The sample buffer was the system buffer. Biotinylated human soluble TWEAK (amino acids 99-249 of SEQ ID NO: 68) and biotinylated murine soluble TWEAK (amino acids 81-225 of SEQ ID NO: 69) was immobilized on different flow cells on the SA sensor at 150 RU each. The flow cell FC1 was used as a blank reference cell. Each antibody was injected into the system as an analyte at 100 nM at 100 μl/min for 2 min association time. The dissociation of the immunecomplexes were monitored for 5 min. The sensor surface was washed with HBS-ET for 10 seconds and regenerated using 2×2 minutes injections with 10 mM glycine pH 2.25. This procedure was done at 25° C. The kinetically rate limiting step of the complex dissociation phase in the interval [240 s-300 s] was taken to calculate the dissociation rate kd [1/s] (Biacore Evaluation Software 4.0). According to the equation t1/2 diss=ln(2)/(60×kd), the half-life of the immunocomplexes in minutes was calculated.
For orientation: Surface plasmon resonance follows binding to a sensor surface in real time, without labels.

In experiment [3] the target is T3, human Flag-tagged soluble TWEAK (amino acids 106-249) (human, UniProt O43508 106-249).
T3 construct: The sentence gives amino acids 106-249 without naming the entry; also called Human TWEAK; not shown: Flag tag
T3 sequence: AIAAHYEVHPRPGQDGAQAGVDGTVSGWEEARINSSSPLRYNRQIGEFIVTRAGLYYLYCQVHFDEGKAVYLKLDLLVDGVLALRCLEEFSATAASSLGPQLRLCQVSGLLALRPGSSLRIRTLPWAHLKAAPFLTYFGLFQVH
Kind of experiment: receptor interaction ELISA: Flag-TWEAK 2.5 ng/ml preincubated with antibody, then on coated human Fn14:Fc (competitor m21). The protocol:
96-well Maxisorp® plates (Nunc) were coated with 100 μl 1 μg/ml human Fn14:Fc (extracellular domain of human Fn14 (amino acids 1-75 of SEQ ID NO: 98) fused to Fc portion of human IgG1) in PBS per well for 1.5 h at room temperature and blocked with a solution of 5% FBS in PBS for 30 minutes at room temperature under shaking. […] After washing the Fn14-coated plate once with wash buffer (0.1% Tween® 20 in PBS), 100 μl of the TWEAK-antibody solution were transferred to each well and the plate was incubated for 1 h at room temperature, followed by four washes with wash buffer. Wells were filled with 100 μl of anti-FLAG-HRP detection antibody, diluted 1:5000 in blocking buffer, and incubated for 1 h at room temperature. After four more wash steps, the signal was developed by addition of 100 μl 3,3,5,5-Tetramethylbenzidine (TMB) solution for approximately ten minutes. The reaction was stopped by adding 100 μl of 1 N HCl, and absorbance measured at 450 nm (reference wavelength 620 nm).

The target in experiment [4] is T4, Mouse soluble TWEAK (untagged, Example 5) (mouse, UniProt O54907 105-249, limits assumed).
T4 construct: also called Murine TWEAK
T4 sequence: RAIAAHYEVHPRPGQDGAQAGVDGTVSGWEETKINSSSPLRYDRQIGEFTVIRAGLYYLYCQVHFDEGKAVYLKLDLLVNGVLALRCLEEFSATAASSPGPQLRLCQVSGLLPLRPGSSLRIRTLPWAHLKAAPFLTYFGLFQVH
Description: receptor interaction ELISA: mouse soluble TWEAK 4 ng/ml preincubated with antibody, then on coated mouse Fn14:Fc (competitor m22). How it is done:
Briefly, Maxisorp plates were coated with mouse Fn14:Fc (extracellular domain of mouse Fn14 (amino acids 1-75 of SEQ ID NO: 98) fused to Fc portion of human IgG1) as described above for human Fn14:Fc, followed by blocking and washing. […] After 1 h of incubation at room temperature and four washes, biotinylated anti-mouse TWEAK antibody at 125 ng/ml in blocking buffer was added for 1 h at room temperature, followed by another four wash steps. The TWEAK antibody was detected by incubation with streptavidin-HRP, diluted 1:5000 in blocking buffer, for 30 minutes at room temperature. Signal was developed and absorbance measured as described above.

Experiment [5] concerns the target T5, IL-17 F/F (human, UniProt Q96PD4 31-163).
T5 construct: read as the homodimer of IL17F
T5 sequence: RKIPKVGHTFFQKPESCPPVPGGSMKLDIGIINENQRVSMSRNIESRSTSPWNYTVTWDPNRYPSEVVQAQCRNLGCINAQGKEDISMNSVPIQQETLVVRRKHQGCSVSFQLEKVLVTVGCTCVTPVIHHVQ
Kind of experiment: SPR (BIAcore T100), antibody captured by anti-human F(ab')2, IL17 as analyte, 25 C. The protocol:
(§1) Around 12000 resonance units (RU) of the capturing system (10 μg/ml goat anti human F(ab′)2; Order Code: 28958325; GE Healthcare Bio-Sciences AB, Schweden) were coupled on a CMS chip at pH 5.0 by using an amine coupling kit supplied by the GE Healthcare. The sample and system buffer was PBS-T (10 mM phosphate buffered saline including 0.05% Tween20) pH 7.4. The bispecific antibody was captured by injecting a 50 nM solution for 1 min at a flow of 10 μl/min. Association was measured by injection human IL17 in various concentrations in solution for 3 min at a flow of 30 μl/min starting with 50 nM in 1:1 dilutions. The dissociation phase was monitored for up to 5 min and triggered by switching from the sample solution to running buffer. The surface was regenerated by two times 60 sec. washing with a glycin pH 2.1 solution at a flow rate of 30 μl/min. Bulk refractive index differences were corrected by subtracting the response obtained from a goat anti human F(ab′)2 surface. Blank injections are also subtracted (=double referencing). For calculation of apparent KD and other kinetic parameters the Langmuir 1:1 model was used.

Experiment [6] has as its target T6, Recombinant human TWEAK (R&D Systems; Cat. #1090-TW/CF) (human, UniProt O43508 97-249, limits assumed).
T6 sequence: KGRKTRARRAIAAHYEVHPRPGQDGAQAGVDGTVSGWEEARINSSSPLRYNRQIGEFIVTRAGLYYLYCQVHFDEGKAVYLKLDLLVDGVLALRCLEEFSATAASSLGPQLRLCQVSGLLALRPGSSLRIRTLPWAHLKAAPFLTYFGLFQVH
Description: cell-based or functional assay.

In experiment [7] the target is T7, IL-17 A/F (human, UniProt Q16552 24-155; Q96PD4 31-163).
T7 construct: read as the heterodimer of IL17A and IL17F
T7 sequence (Q16552 24-155 limits assumed, one chain of several): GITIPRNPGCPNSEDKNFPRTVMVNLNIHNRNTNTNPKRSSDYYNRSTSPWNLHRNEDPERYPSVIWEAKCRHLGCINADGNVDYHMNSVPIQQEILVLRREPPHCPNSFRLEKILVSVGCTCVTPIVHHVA
Kind of experiment: SPR (BIAcore T100), antibody captured by anti-human F(ab')2, IL17 as analyte, 25 C, 1:1 model. The protocol: as §1

Experiment [8] has as its target human IL17A/A (human, UniProt Q16552 24-155, limits assumed). Description: SPR (BIAcore T100), antibody captured by anti-human F(ab')2, IL17 as analyte, 25 C, apparent KD, 1:1 model. The protocol:
as §1

human IL17A/A, sequence (Q16552 24-155 limits assumed): as the sequence (Q16552 24-155 limits assumed, one chain of several) above

B1: <TWEAK> 305chi (antibody, human IgG1, kappa, V domains shown)
VH: QEQLVESGGGLVQPGGSLTLSCKASGFDFSTYYMSWVRQAPGKGLEWIGTVYVRQGTTYYASWLNGRFTISSDNAQNTVDLKMNSLTAADTATYFCAKGGYNYDDAFVIWGPGTLVTVSF
VL: AIEMTQTPFSVSAAVGGTVTINCQASQNIYSNLAWYQQKPGQPPKLLMYTASYLASGVPSRFKGSGSRTEYTLTISGVQCADAATYYCQTAYYNSRPDTVAFGGGTEVVVKR
notes: Chimer: rabbit variable domains with human kappa and human IgG1 constant regions
On to B1, for which, in experiment [1], the “Inhibition of IL-8 Secretion IC50 [ng/ml] (A375 cells)” value (shortened to “Inhibition of IL-8 Secretion IC50”) turned out to be 104 ng/mL. For the same molecule, in experiment [2], the “t/2 diss [min] 25° C.” value came out at 147 min. This molecule also registered an IC50 in experiment [3] of 2.6 ng/mL.

B2: <TWEAK> 304 (rabbit) (antibody, V domains shown)
VH: QSLEESGGDLVKPGASLTLTCKASGFSFSSTYYMCWVRQAPGKGLEWIGCIYVGSSGAPYYASWAKGRFTISKTSSTTVALQMTSLTPADTATYVCTRSVHFGDLWGPGTLVTVSS
VL: DVVMTQTPSPVSAAVGGTVTIKCQASQSIGNDLSWYQQKPGQRPKLLIYSVSTLASGVPSRFKGSGSGTEYSLTISDVQCADAATYYCQCIDYGNNYVGNTFGGGTEVVVK
notes: Rabbit parent antibody
With B2, the “Inhibition of IL-8 Secretion IC50” value in experiment [1] was found to be 109 ng/mL. For the same molecule, the results for the IC50 in experiment [4] and in experiment [3] were 3.6 ng/mL and 2.8 ng/mL, respectively.

B3: <TWEAK> 304chi (antibody, human IgG1, kappa, V domains shown)
VH: QSLEESGGDLVKPGASLTLTCKASGFSFSSTYYMCWVRQAPGKGLEWIGCIYVGSSGAPYYASWAKGRFTISKTSSTTVALQMTSLTPADTATYVCTRSVHFGDLWGPGTLVTVSS
VL: DVVMTQTPSPVSAAVGGTVTIKCQASQSIGNDLSWYQQKPGQRPKLLIYSVSTLASGVPSRFKGSGSGTEYSLTISDVQCADAATYYCQCIDYGNNYVGNTFGGGTEVVVKR
notes: as for B1
With B3, the “Inhibition of IL-8 Secretion IC50” value in experiment [1] came to 122 ng/mL. In addition, in experiment [2], the “t/2 diss [min] 25° C.” value was 37 min. The molecule also gave an IC50 in experiment [3] of 2.6 ng/mL.

B4: <TWEAK> 301 (rabbit) (antibody, V domains shown)
VH: QSLEESGGGLVKPGASLTLTCTASGFTFNANYWICWVRQAPGKGLEWIACIYGGGNSGAYYASWATGRFTISRTSSTTVTLQMTSLTAADTATYFCARGPISRDLWGPGTLVTVSL
VL: DVVMTQTPASVSEPVGGTVTIKCQASQSIYSSLAWYQQKPGQPPKLLIYDAFDLASGVSSRFTGSGSGTQFTLTISDLECADAATYYCQSTDYGNSWDGNPFGGGTEVVVT
notes: Rabbit parent antibody; purified antibody or hybridoma supernatant was used
As for B4, the “Inhibition of IL-8 Secretion IC50” value in experiment [1] came to 128 ng/mL. Further, the IC50 in experiment [4] is 4.7 ng/mL; in experiment [3], 3.4 ng/mL.

B5: Bispecific <Tweak-IL-17> #2 antibody (bispecific antibody, human IgG1, kappa)
heavy 1: not shown
heavy 2: not shown
light 1: DIVMTQSPLSLPVTPGEPASISCRSSQSLVHSNGDTYFHWYLQKPGQSPQLLIYKVSNRFSGVPDRFSGSGSGTDFTLKISRVEAEDVGVYYCSQTTHAPFTFGQGTKLEIKRTVAAPSVFIFPPSDEQLKSGTASVVCLLNNFYPREAKVQWKVDNALQSGNSQESVTEQDSKDSTYSLSSTLTLSKADYEKHKVYACEVTHQGLSSPVTKSFNRGEC
light 2: DIQMTQSPSSVSASVGDRVTITCQASQNIYSNLAWYQQKPGKAPKLLIYTASYLASGVPSRFSGSGSGTDYTLTISSLQPEDFATYYCQTAYYNSRPDTVAFGGGTKVEIKSSASTKGPSVFPLAPSSKSTSGGTAALGCLVKDYFPEPVTVSWNSGALTSGVHTFPAVLQSSGLYSLSSVVTVPSSSLGTQTYICNVNHKPSNTKVDKKVEPKSC
notes: Bivalent CrossMab (CH1-CL exchanged, WO 2009/080253), IgG1 knobs-into-holes
As to B5, the binding result in experiment [5] is listed as “no binding (tested: IL17 injected starting with 50 nM)”. Moreover, in experiment [6], the “IC50 (nM) per valency, Tweak induced HFLS proliferation (CellTiter Glo)” value was 0.065 nM. The Kd in experiment [7] turned out to be 0.25 nM; in experiment [8], 0.15 nM.

Broadly, the IC50 is the concentration at which inhibition is half-maximal. Read a low IC50 as greater potency in that assay.
